To fix the notation:
B1: unnamed (parent)
chain 1: DKEWILQKIYEIMRLLDELGHAEASMRVSDLIYEF
chain 2: not shown

Experimental findings from PMC9181698 are described below.

Variants of B1 are the subject of the experiment. Conditions: with partner chain of the complex shown; 12 nM peptide; read off a plot.
Regarding chain 1 I32A, the screen value is 46%.
The value for chain 1 H21A was 31%.
With chain 1 L31A, the screen value was determined as 18%.
As for chain 1 W4A, the screen value amounted to 3.7%.
Regarding chain 1 E3A, the screen value came out at 4.5%.
The value for chain 1 L6A was 69%; that for chain 1 M13A was 92%; that for chain 1 Y33A was 86%.
To chain 1 K8A belongs 19%.
The value for chain 1 R27A was 3%; that for chain 1 E23A was 50%.
For the variant chain 1 I12A, the screen value turned out to be 7%.
The value for chain 1 R14A was 24%; that for chain 1 M26A was 67%.
To chain 1 L16A belongs 23%; to chain 1 E11A, 26%; to chain 1 L15A, 4.5%.
Turning to chain 1 F35A, the screen value was 23%.
To chain 1 I9A belongs 3%.
For the variant chain 1 Y10A, the screen value is 18%.
The value for chain 1 L19A was 1.7%; that for chain 1 S25A was 9%; that for chain 1 Q7A was 19%.
Consider chain 1 D30A, for which the screen value was determined as 96%.
To chain 1 E34A belongs 20%; to chain 1 S29A, 49%.
Consider chain 1 I5A, for which the screen value came out at 3%.
As for chain 1 K2A, the screen value was 47%.
With chain 1 G20A, the screen value stood at 66%.
As for chain 1 D1A, the screen value stood at 4.5%.
To chain 1 D17A belongs 14%; to chain 1 E18A, 1%; to chain 1 V28A, 8.5%.
